# Source: the DeepSol protein solubility set
# Test: soluble on expression in E. coli; label from the status in PepcDB or PDB records
row,Sequence,soluble on expression in E. coli
1,MGSDKIHHHHHHMILQVQPAKLIKRYKRFLADIELNCGEETTIHCANTGAMKGCAEPDDTVWYTTSTNTKRKYPFSWEITQSQDDHFICVNTLRANQLVEEALHLDLIKELSGFNELKREVKYGNENSRVDFLATYNNAPDTYIEVKSVTLLESGHGYFPDAVTTRGQKHLRELMDMVAQGHKAVLLFAVLHSGINDISAASHVDPIYAKLLKEARLAGVEIIAYKAGFSLQLGELDVKLVEKIPFIER,not soluble
2,MGSDKIHHHHHHMIMQLDCALYQHPKLITVFGGSGFVGRHVVEALTKRGYRVRIAVRSPQKAYYMLQIGEVGQTQMLRTDIKCRASVARALLGSDGAVFLPGSLAQANQPNFQKTQIEGAQNVSELTAEAGIPLIYMSALVANKNASFLYARVKSMSEEIIHNEHPQAIIMRPSIIFGPEDCFFNNLANLSCFLPIIPLFGGGQSKLQPVYVGDVAEFIVRALEGQVISGKSYDLGGPQIITFQNVLEYILKIIHRKKTILSMPLSAGLFIGGLLGTIGKLPLAPTLVTASQIRFLQIDNIVSQEAIENGYTLEGVGITPKAMAALLPSYLWRFRPHGQFSRNLPA,not soluble
3,MGSDKIHHHHHHMINTKEDFLLLIKQIEQKSGYKKPKAFGIARLDRGQLNKNKILQASFALINYEQNFGSAAIMLEAFMQRGVEIDFNASEFVQTLKLEDIDFALSCFKPFLEEDGHQNIDLLKIIKDKFKDDEFSFVCLFEDKEPLSVESIYLKLYLLSTKKVPLRSINLNGAFGLLSNVAWSDDKPIELEYLRANEMRLKMSNQYPKIDFVDKFPRFLAHIIPEDNTRILESSKVRMGASLAAGTTIMPGASYVNFNAGTTGACMVEGRISSSAIVGEGSDVGGGASILGVLSGTSGNAISVGKACLLGANSVTGIPLGDNCIVDAGIAVLEGTKFLLKDAEELAKLNPYFNFDKEIYKGLELKGLNGLHFRQDSISGAMIVALNKKAVKLNEALH,not soluble
4,MGSDKIHHHHHHMIPIEIDSGSGFCFGVVNAIRHAEKQLEKSSDKLYCLGDIVHNTLEVERLGKKGLETIDYDAFSRLRGAKVLLRAHGEPPEIYRMAGENGVTIIDATCPVVLRLQNKIKSRYEATRSLGAQVVIYGKRGHAEVNGLVGQTEGTAIVIESEEELDKIDYTRPVILFSQTTKSLEGFGQIIDSISTRMQPGVTFEHHDTICRQVANRIPHIGAFATAHELVFFVAGEKSSNGKVLFGHCLAANPRSIFISSPEVIVPDMLVPLPASIGICGATSTPRWQMEEVASHIKALL,not soluble
5,MGSDKIHHHHHHMIPSSMKAMVLKGHGGIDQLMYQDVPVPQPREGEVLVQVTATAKNNTDRKAREGLYPTKKGEMTSFQMGGKPTLTFPRIQGADIVGRIVAVGAGVSEQRIGERGLLDFNIYADNRTDINLTPDYYGHGADGGYAEYVALPSDQFHHIPNPDLADAELASMGMCSYQTAYHMLTSANIQAGERVLVTGASGGVGTALIQLCRIIGAIPYALSQKDKADSLLKLGAEAVLDRTDMDSFVDRVKAETGGKPLDAVMDLVGGDMTDRFIDAMIFDMNARSTYPRLSIAGASGGNISEILWTRIYLYQVQIFGVSHGTREEAEQLMRWIRSGDLKPVLHGAFRLSELHRAEEYFVNRGSNYLGKIVIVPDAQWQEHGQPYEVEAD,not soluble
6,MGSDKIHHHHHHMIQADEVAERRLMNIPISGGQHGLFERLFAELRPKLHRYCARMTGSVFDGEDVLQETLAKAIEALPGAGPIANPEGWLFRIAHNAALDFLRRRAREQAYSDEDLDMIVDPANPTIDRQAASAGLHTFMRLPVTQRSSVIMMDVLGYSLQEISAMLDTSIPAVKAALHRGRDRLRQIANEPHDRPLPRLGAAERQLLNAYIDRFNARDFDAVRDMLAEEVRLELVAKTRLNGREEVGTYFGNYSRAQDWHLVPGFVENRPAILVHDLNDPATRPAYFIVLAWHDGRLAAIGDFRHARYVADSADMHAL,not soluble
7,MGSDKIHHHHHHMIQQKVRVGLLGVGLDTYWGQFEGLLPRLLTYQDEIAAKIEAMDVQVINTGMVDSPLKANECVLQLKQADVELVFLFISTYALSSTILPVAQQVGKPIIILNIQPASAIDYQKLNSMGDRGRMTGEWLAHCQACSVPEFASVLNRAGVRYDIITGYLSEDYVWEEIASWVDAVRVMYGMRTSRLGVLGHYYCGMLDVYTDLMKQSAVFGTHIELLEMCELKAYREEVSDGELKRKLDEFYDKFNVEASCSSEELVRAARTSVALDKLVNVHQLGAMAYYYEGFCGNDYENIVTSVIAGNTLLTGYGIPVAGECEVKNAQAMKIMSLLKAGGSFSEFYAMDFKDDIVLLGHDGPAHFAIAEEKVKLVPLPLYHGKPGKGLSIQMSVKPGDVTLLSVCEGRDGVFLLAAEGEAVQGETLHIGNTNSRYRFPCGARRFMDQWSKAGPSHHCAIGIGHKVSELKKLAFLLDIPIIVVE,not soluble
8,MGSDKIHHHHHHMIRGEMTMPSLTFQEIDNHLMNDNKPSNFIIELNKAGIIETEYPFTLLGALKDTPQSPKHHPEGSVWNHTLMVLDNAAERKHLSQNPQVLMWAALLHDLGKAPTTRVRKGRITSYDHDAVGEKLAGQFLRELTRDERFIHQVAKMVRWHMQILFVVKGLPFANVKKMAAEVSIEEIALLGFCDRLGRGEMTPQKKQEEEQTIEKFLVRCMEILQG,not soluble
9,MGSDKIHHHHHHMIRSLWTAKTGLESQQVKLDVISNNLSNVSTNGFKRSRPVFEDLLYQNVRQPGAQASAVDTLPSGLQVGTGVRPVATERLHTQGGLQNTDNSKDLAINGQGFFAVQMPDGTSAYTRDGSFQIDENGQMVTAGGYPLDPPIVIPENALSVSISQDGVVSVTQPGDTAAQEVGQLTLSKFINPAGLQSMGENLYQETDASGPRNDLIPGMEGAGRLYQGYVETSNVNVVEEMVSMIETQRAYEINSKAVETSDQMLSRLTQL,not soluble
10,MGSDKIHHHHHHMISATNWVPRGFSSEFPEKYVLDDEEVERINQLAQLNLDDAKATLEEAEGESGVEDDAATGSSNKLKDQLDIDDDLKEYNLEEYDDEEIADNEGGKDVSMFPGLSNDSDVKFHEGEKGEDPYISLPNQEDSQEEKQELQVYPSDNLVLAARTEDDVSYLDIYVYDDGAGFHSSDIPVEEGDEADPDVARGLVRDPALYVHHDLMLPAFPLCVEWLDYKVGSNSEEAANYAAIGTFDPQIEIWNLDCVDKAFPDMILGEPLDNSMVSLKSKKKKKKSKTGHITTHHTDAVLSMAHNKYFRSVLASTSADHTVKLWDLNSGNAARSLASIHSNKNVSSSEWHMLNGSILLTGGYDSRVALTDVRISDESQMSKYWSAMAGEEIETVTFASENIILCGTDSGNVYSFDIRNNENRKPVWTLKAHDAGISTLCSNKFIPGMMSTGAMGEKTVKLWKFPLDDATNTKGPSMVLSRDFDVGNVLTSSFAPDIEVAGTMVIGGVNKVLKLWDVFTNRSVRKSFKSELENVQARAKEEAQKIGKSSRIARKYTSNDNPDTVITIDDQGEDEEEREGGDEHDDMA,not soluble
11,MGSDKIHHHHHHMISMKEEIKKVIEETGLPIITDEKSGAAQWVDLRELRLSYIISVENIKPFYEGLKEGKLLGTKCKKCGRLFFPPQKDCPSCFDSDIEWVELKNEGTLETMTVVFVRPPSFSAYDPYPVAIAKLDDGPRILAWYKGDPQQAKPGMRVKIQVGKRKEGYLMYEIAPA,not soluble
12,MGSDKIHHHHHHMITTTIFPGRYVQGAGAINILEEELSRFGERAFVVIDDFVDKNVLGENFFSSFTKVRVNKQIFGGECSDEEIERLSGLVEEETDVVVGIGGGKTLDTAKAVAYKLKKPVVIVPTIASTDAPCSALSVIYTPNGEFKRYLFLPRNPDVVLVDTEIVAKAPARFLVAGMGDALATWFEAESCKQKYAPNMTGRLGSMTAYALARLCYETLLEYGVLAKRSVEEKSVTPALEKIVEANTLLSGLGFESGGLAAAHAIHNGLTVLENTHKYLHGEKVAIGVLASLFLTDKPRKMIEEVYSFCEEVGLPTTLAEIGLDGVSDEDLMKVAEKACDKNETIHNEPQPVTSKDVFFALKAADRYGRMRKNLT,soluble
13,MGSDKIHHHHHHMIWKLSERKDWNSLEQQFGWVRDMNQVPQHTVHHAEGSVAVHTRMVLEALLRQPAYPMLPEQEREILWAAALLHDVEKRSTSVDEGNGQVTSKNHAKRGETTVRTLLYRDIPAPFNIREHIASLVRHHGLPIWLMEREDPLKRACEASLRLDTSLLKQLTVADICGRISTDKEVLLEATEFFEMFCREQQCWGKAREFANGTARFHYFHTPRSYIDYVPHDDFKCGVTLLVGLPGMGKDYYIESRCADMPVVSLDAIRRKHKFSPTDKAANGWVAQTAKEQARIYLRKGQDFIWNATNVSRQRRTQLIDLFITYGARVKIVYIEKPYSVWRRQNSTREYEVPETVLDKMLGRLEVPQLTEAHEVVYVVEE,not soluble
14,MGSDKIHHHHHHMIYNYGFLDENTKKEIRRKILKAISIPGYQVPFGSRELPIAKGWGTGGLQLTLSLIGKNDVVKVIDQGSDDSTNACNIRSFIASVSNVETTKDTLEATLIQTRHRIPEEKLKSNQILIFQVPIPETLRIVEPSEVETRRMHSEEDYSRMWVYLYEDIVRFNDISIAVEYPCKVNDRYLMNPSPIPRFDIKKLNMSDNLFLFGAGREKRIYAIPPYTKVEPLEFEDYKFEEEKFEGKYCSLCNSTNTFLDEVYDSDTNEKYYSCSDTSYCEKVRLKNNSIDVTIGGTWNE,not soluble
15,MGSDKIHHHHHHMKAVILAAGRGSRLQALTDERPKALVPFNGVPLLQRAIETLRRCDVSEVGIVAGYRSEMLAPFADTLFYNHRWHSSGIFSSLNCASDWLSAEPCLVSYGDIFYDSTLVSELINHPADIVLGYDPAAVRLWQQRFNDPLPDLENFRLVDGWVSAIGQTATSLEVIQGQYMGLFKVTPAGWQALKKQLQGLTPQARDQTDMTSLLGTLVSEGFPVAGVATHAPWGEIDCPSDVALYERIYPDR,not soluble
16,MGSDKIHHHHHHMKCNDKLAPFEVFDHVVNKKLSFRHVTMDDVDMLHSWMHEEHVIPYWKLNIPLVDYKKHLQTFLNDDHQTLMVGAINGVPMSYWESYWVKEDIIANYYPFEEHDQGIHLLIGPQEYLGQGLIYPLLLAIMQQKFQEPDTNTIVAEPDRRNKKMIHVFKKCGFQPVKEVELPDKIGLLMKCEQNVFEKRWSDWKMNKF,not soluble
17,MGSDKIHHHHHHMKDGKLYVAFSGGKDSSLVAILAKMALGEERVELVTVDWSPYTYERSREIVRNFAEKHGLKHTFIPSNRMQEKVWKHGPSCNACTRDVKTVLVKRYAQGHLVASGANASDSWGKTGLKVFDGVYSPLCRVGKEEINEMLKFLGLEVKKIGESAGREGCKLKHLLKMLINPDYHGKAVSTANEILLRVLEEHGFKPELANVKIIGPLSRNIALVNVKPLPPEKVMNEIVEKLSAEETIDGVIVVDGPMKLVVLASPAIYRNEESRKWIKEGRLQPEFAFPIEIEWRESKNNKLRTFQVVDARKE,not soluble
18,MGSDKIHHHHHHMKELIRKLTEAFGPSGREEEVRSIILEELEGHIDGHRIDGLGNLIVWKGSGEKKVILDAHIDEIGVVVTNVDDKGFLTIEPVGGVSPYMLLGKRIRFENGTIGVVGMEGETTEERQENVRKLSFDKLFIDIGANSREEAQKMCPIGSFGVYDSGFVEVSGKYVSKAMDDRIGCAVIVEVFKRIKPAVTLYGVFSVQEEVGLVGASVAGYGVPADEAIAIDVTDSADTPKAIKRHAMRLSGGPALKVKDRASISSKRILENLIEIAEKFDIKYQMEVLTFGGTNAMGYQRTREGIPSATVSIPTRYVHSPSEMIAPDDVEATVDLLIRYLGA,soluble
